Measured values taken from the supplement of paper PMC7877785.
± gives the uncertainty stated by the source.

Assay: self-splicing fitness, log relative to wild type (ln ratio); higher = more splicing; Tetrahymena group I intron in knt gene, E. coli kanamycin selection, DiMSum; sequences stand for … in CUCUCU…GGAGGGAAAAGUUAUCAGGCAUGCACCUGGUAGCUAGUCUUUAAACCAAUAGAUUGCAUCGGUUUAAAAGGCAAGACCGUCAAAUUGCGGGAAAGGGGUCAACAGCCGUUCAGUACCAAGUCUCAGGGGAAACUUUGAGAUGGCCUUGCAAAGGGUAUGGUAAUAAGCUGACGGACAUGGUCCUAACCACGCAGCCAAGUCCUAAGUCAACAGAUCUUCUGUUGAUAUGGAUGCAGUUCACAGACUAAAUGUCGGUCGGGGAAGAUGUAUUCUUCUCAUAAGAUAUAGUCGGACCUCUCCUUAAUGGGAGCUAGCGGAUGAAGUGAUGCAACACUGGAGCCGCUGGGAACUAAUUUGUAUGCGAAAGUAUAUUGAUUAGUUUUGGAGUACUCGUGGUCG
Outline: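 Fitness was computed with DiMSum as the error-weighted combination of replicate fold changes, kanamycin versus none, each normalised to wild type. The library randomised all eight intron nucleotides of the P1ex region, with the intron placed in the knt kanamycin-resistance gene on pET-22b(+) in E. coli BL21(DE3). Six replicate transformations were grown overnight at 37°C or 30°C on LB agar with or without 25 μg/mL kanamycin, plus 100 μg/mL carbenicillin, 50 μM IPTG and 0.2% rhamnose. Pooled colonies were amplicon-sequenced on an Illumina HiSeq 2500.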

Q: With CAGCAGCAAUAUUACGGAAU as the sequence, how does the “self-splicing fitness (ln)” value (30 °C) read?
A: Its value is -4.16 ± 0.24.

Q: And the “self-splicing fitness (ln)” value (37 °C)?
A: Its value is -1.95 ± 0.16.

Q: Which results are given for AGACAGCAAUAUUACGUUCC?
A: self-splicing fitness (ln) (30 °C): -2.2 ± 0.16; self-splicing fitness (ln) (37 °C): -1.77 ± 0.18

Q: For UCUCAGCAAUAUUACGUCAC, which “self-splicing fitness (ln)” value (30 °C) is on record?
A: Its value is -3.75 ± 0.19.

Q: And the “self-splicing fitness (ln)” value (37 °C)?
A: The value was -2.55 ± 0.17.

Q: With AGUAAGCAAUAUUACGGUGG as the sequence, how does the “self-splicing fitness (ln)” value (30 °C) read?
A: The value was -3.68 ± 0.2.

Q: What about the “self-splicing fitness (ln)” value (37 °C) of the same sequence?
A: The value was -1.66 ± 0.16.

Q: With GAUUAGCAAUAUUACGCGUC as the sequence, how does the “self-splicing fitness (ln)” value (30 °C) read?
A: Its value is -4.09 ± 0.47.

Q: And the “self-splicing fitness (ln)” value (37 °C)?
A: Its value is -2.01 ± 0.3.

Q: Which results are given for AGGAAGCAAUAUUACGAUCC?
A: self-splicing fitness (ln) (30 °C): -0.54 ± 0.16; self-splicing fitness (ln) (37 °C): -0.331 ± 0.17

Q: For UUCCAGCAAUAUUACGGUUA, which “self-splicing fitness (ln)” value (30 °C) is on record?
A: Its value is 0.496 ± 0.085.

Q: And the “self-splicing fitness (ln)” value (37 °C)?
A: The value was 0.423 ± 0.087.

Q: For AGGAAGCAAUAUUACGUGUG, which “self-splicing fitness (ln)” value (30 °C) is on record?
A: The value was -2.29 ± 0.077.

Q: What about the “self-splicing fitness (ln)” value (37 °C) of the same sequence?
A: Its value is -1.85 ± 0.095.

Q: Which “self-splicing fitness (ln)” value (30 °C) does the source give for GACGAGCAAUAUUACGCGUC here?
A: The value was -2.57 ± 0.5.

Q: Which “self-splicing fitness (ln)” value (30 °C) does the source give for GUAGAGCAAUAUUACGGGCU here?
A: Its value is -2.37 ± 0.3.

Q: And the “self-splicing fitness (ln)” value (37 °C)?
A: The value was -1.89 ± 0.41.

Q: Which “self-splicing fitness (ln)” value (30 °C) does the source give for ACGAAGCAAUAUUACGGUAG here?
A: Its value is -2.36 ± 0.15.

Q: And the “self-splicing fitness (ln)” value (37 °C)?
A: The value was -2.22 ± 0.22.

Q: Which “self-splicing fitness (ln)” value (30 °C) does the source give for ACGCAGCAAUAUUACGGCUA here?
A: Its value is -0.12 ± 0.064.

Q: What about the “self-splicing fitness (ln)” value (37 °C) of the same sequence?
A: The value was -0.215 ± 0.075.

Q: For AAUCAGCAAUAUUACGAGCC, which “self-splicing fitness (ln)” value (30 °C) is on record?
A: Its value is -2.39 ± 0.16.

Q: And the “self-splicing fitness (ln)” value (37 °C)?
A: Its value is -0.744 ± 0.19.

Q: What does the source list for AUAAAGCAAUAUUACGAGCA?
A: self-splicing fitness (ln) (30 °C): -0.252 ± 0.074; self-splicing fitness (ln) (37 °C): -0.299 ± 0.082

Q: Which results are given for AACCAGCAAUAUUACGACCG?
A: self-splicing fitness (ln) (30 °C): -0.744 ± 0.087; self-splicing fitness (ln) (37 °C): -0.237 ± 0.14

Q: With CCCAAGCAAUAUUACGGCUU as the sequence, how does the “self-splicing fitness (ln)” value (30 °C) read?
A: Its value is -4.22 ± 0.22.

Q: And the “self-splicing fitness (ln)” value (37 °C)?
A: The value was -3.15 ± 0.17.

Q: For AUGCAGCAAUAUUACGCGGU, which “self-splicing fitness (ln)” value (30 °C) is on record?
A: Its value is -4.01 ± 0.21.

Q: What about the “self-splicing fitness (ln)” value (37 °C) of the same sequence?
A: Its value is -1.85 ± 0.16.

Q: With AGGUAGCAAUAUUACGCGCU as the sequence, how does the “self-splicing fitness (ln)” value (30 °C) read?
A: Its value is -1.13 ± 0.017.

Q: What about the “self-splicing fitness (ln)” value (37 °C) of the same sequence?
A: Its value is -0.72 ± 0.036.

Q: Which results are given for GAAAAGCAAUAUUACGUACC?
A: self-splicing fitness (ln) (30 °C): -0.525 ± 0.092; self-splicing fitness (ln) (37 °C): -0.528 ± 0.14

Q: With GAUGAGCAAUAUUACGUAUC as the sequence, how does the “self-splicing fitness (ln)” value (30 °C) read?
A: The value was -3.54 ± 0.37.

Q: What about the “self-splicing fitness (ln)” value (37 °C) of the same sequence?
A: Its value is -2.64 ± 0.31.

Q: Which results are given for CGCCAGCAAUAUUACGCGCA?
A: self-splicing fitness (ln) (30 °C): -1.98 ± 0.13; self-splicing fitness (ln) (37 °C): -0.948 ± 0.13

Q: What does the source list for GUGUAGCAAUAUUACGUUGU?
A: self-splicing fitness (ln) (30 °C): -3.02 ± 0.28; self-splicing fitness (ln) (37 °C): -2.17 ± 0.21

Q: What does the source list for CCUGAGCAAUAUUACGGGGG?
A: self-splicing fitness (ln) (30 °C): -3.15 ± 0.16; self-splicing fitness (ln) (37 °C): -1.55 ± 0.22

Q: What does the source list for GCAAAGCAAUAUUACGAAUC?
A: self-splicing fitness (ln) (30 °C): -1.68 ± 0.12; self-splicing fitness (ln) (37 °C): -0.115 ± 0.13

Q: Which “self-splicing fitness (ln)” value (30 °C) does the source give for GUCGAGCAAUAUUACGCUAU here?
A: The value was -2.01 ± 0.12.

Q: And the “self-splicing fitness (ln)” value (37 °C)?
A: Its value is -1.36 ± 0.12.

Q: Which “self-splicing fitness (ln)” value (30 °C) does the source give for UGUAAGCAAUAUUACGCGAU here?
A: The value was -3.35 ± 0.29.

Q: And the “self-splicing fitness (ln)” value (37 °C)?
A: Its value is -1.25 ± 0.21.

Q: What does the source list for GCGCAGCAAUAUUACGGAGG?
A: self-splicing fitness (ln) (30 °C): -1.63 ± 0.12; self-splicing fitness (ln) (37 °C): -0.473 ± 0.11

Q: What does the source list for GACGAGCAAUAUUACGGGAC?
A: self-splicing fitness (ln) (30 °C): -3.94 ± 0.31; self-splicing fitness (ln) (37 °C): -2.23 ± 0.46

Q: What does the source list for GACGAGCAAUAUUACGUUGC?
A: self-splicing fitness (ln) (30 °C): -4.31 ± 0.3; self-splicing fitness (ln) (37 °C): -2.48 ± 0.24

Q: For GUGUAGCAAUAUUACGGCUA, which “self-splicing fitness (ln)” value (30 °C) is on record?
A: The value was -1.84 ± 0.34.

Q: And the “self-splicing fitness (ln)” value (37 °C)?
A: Its value is -2.77 ± 0.32.

Q: Which “self-splicing fitness (ln)” value (30 °C) does the source give for GAUGAGCAAUAUUACGUAGC here?
A: The value was -3.69 ± 0.34.

Q: And the “self-splicing fitness (ln)” value (37 °C)?
A: Its value is -1.74 ± 0.25.

Q: Which “self-splicing fitness (ln)” value (37 °C) does the source give for GCGUAGCAAUAUUACGUCAA here?
A: The value was -2.38 ± 0.32.

Q: Which results are given for UCGAAGCAAUAUUACGGACA?
A: self-splicing fitness (ln) (30 °C): -0.385 ± 0.15; self-splicing fitness (ln) (37 °C): -0.235 ± 0.23

Q: Which “self-splicing fitness (ln)” value (30 °C) does the source give for UACUAGCAAUAUUACGUGAA here?
A: The value was -2.19 ± 0.11.

Q: What about the “self-splicing fitness (ln)” value (37 °C) of the same sequence?
A: The value was -1.18 ± 0.13.

Q: With AGGAAGCAAUAUUACGUCUG as the sequence, how does the “self-splicing fitness (ln)” value (30 °C) read?
A: The value was -0.767 ± 0.058.

Q: And the “self-splicing fitness (ln)” value (37 °C)?
A: The value was -0.387 ± 0.073.

Q: For CAAUAGCAAUAUUACGCAUC, which “self-splicing fitness (ln)” value (37 °C) is on record?
A: The value was -2.7 ± 0.35.

Q: Which “self-splicing fitness (ln)” value (30 °C) does the source give for UAUGAGCAAUAUUACGCGUC here?
A: Its value is -2.05 ± 0.16.

Q: And the “self-splicing fitness (ln)” value (37 °C)?
A: Its value is -2.81 ± 0.37.

Q: For UUCCAGCAAUAUUACGGCCU, which “self-splicing fitness (ln)” value (30 °C) is on record?
A: Its value is -4.05 ± 0.42.

Q: What about the “self-splicing fitness (ln)” value (37 °C) of the same sequence?
A: Its value is -1.58 ± 0.17.
